Data on nine molecules can be found in patent US20120027773A1 (AVEO PHARMACEUTICALS, published 2012).

Sequences and labels used below:
B1: Sh29B06-78 (antibody, human IgG1, kappa, V domains shown)
VH: QVQLQESGPGLVKPSETLSLTCTVSGGSISSGYWNWIRKPPGKKLEYIGYISYSGKTYYNPSLKSRVTISRDTSKNQFSLKLSSVTAADTAVYYCARSKYDYAMDYWGQGTLVTVSS
VL: DIVMTQSPLSLPVTPGEPASISCRASEIVDNFGISFMNWYLQKPGQSPQLLIYAASNQGSGVPDRFSGSGSGTDFTLKISRVEAEDVGVYYCQQSKEVPPTFGGGTKVEIKR
notes: Humanized, human IgG1/kappa: Hu29B06 Hv4-59 D27G T30S M48I I67V Y78F IgG1 + Sh29B06 Kv2-28 Kappa
B2: Sh07F01-62 (antibody, human IgG1, kappa, V domains shown)
VH: EVQLVESGGGLVQPGGSLRLSCAASGFTFSRHWMSWVRQAPGKGLEWVSEINPDSRTINYAPSVKGRFTISRDNAKNSLYLQMNSLRAEDTAVYYCARRVRIHYYGAMDSWGQGTTVTVSS
VL: DIQLTQSQSFVSTSVGDRVTVTCRASQNVGSSLVWYQQKPGKSPKTLIYSASFLYSGVPSRFSGSGSGTEFTLTISSVQPEDFADYFCQQYNNYPLTFGGGTKVEIKR
notes: Humanized, human IgG1/kappa: Sh07F01 Hv3-48 D28T T60A L63V E65G IgG1 + HE L 07F01 Kv1-9 Kappa
B3: RON8 (antibody, V domains shown)
VH: EVQLVESGGGLVQPGGSLRLSCAASGFTFSSYLMTWVRQAPGKGLEWVANIKQDGSEKYYVDSVKGRFTISRDNAKNSLNLQMNSLRAEDTAVYYCTRDGYSSGRHYGMDVWGQGTTVIVSS
VL: EIVLTQSPATLSLSPGERATLSCRASQSVSRYLAWYQQKPGQAPRLLIYDASNRATGIPARFSGSGSGTDFTLTISSLEPEDFAVYYCQQRSNWPRTFGQGTKVEIKR
B4: Sh07F01-2 (antibody, human IgG1, kappa, V domains shown)
VH: EVKLLESGGGLVQPGGSLKLSCAASGFDFSRHWMSWVRLAPGKGLEWIAEINPDSRTINYTPSLKEKFIISRDNAKNSLFLQMNRVRSEDTALYYCARRVRIHYYGAMDSWGQGTSVTVSS
VL: DIVLTQSQKIVSTSVGARVSVTCKASQNVGSSLVWYQQKPGQSPKTLIYSASFRYSGVPDRFTGSGSGTDFTLTISNVQSEDLADYFCQQYNNYPLTFGAGTKLELKR
notes: also called Chimeric 07F01 C102S
B5: Sh29B06-23 (antibody, human IgG1, kappa, V domains shown)
VH: B1 VH with G27D, S30T, I48M, V67I, F78Y
VL: B1 VL
notes: Humanized, human IgG1/kappa: Hu29B06 Hv4-59 IgG1 (CDR graft with back mutations) + Sh29B06 Kv2-28 Kappa
B6: Sh07F01-83 (antibody, human IgG1, kappa, V domains shown)
VH: B2 VH
VL: B2 VL with Q8P, V11L, T13A, V21I, S43A, V78L, D85T, F87Y
notes: Humanized, human IgG1/kappa: Sh07F01 Hv3-48 D28T T60A L63V E65G IgG1 + Sh07F01 Kv1-9 F1 Kappa
B7: Sh07F01-69 (antibody, human IgG1, kappa, V domains shown)
VH: B2 VH with T28D, A61T, V64L, G66E
VL: B2 VL with Q8P, V11L, T13A, V21I, S43A, V78L, D85T, F87Y
notes: Humanized, human IgG1/kappa: Sh07F01 Hv3-48 IgG1 + Sh07F01 Kv1-9 F1 Kappa
B8: Sh07F01-43 (antibody, human IgG1, kappa, V domains shown)
VH: B2 VH with T28D, A61T, V64L, G66E
VL: B2 VL
notes: Humanized, human IgG1/kappa: Sh07F01 Hv3-48 IgG1 + HE L 07F01 Kv1-9 Kappa
B9: Sh29B06-9 (antibody, human IgG1, kappa, V domains shown)
VH: EVQLQESGPSLVKPSQTLSLTCSVTGDSITSGYWNWIRKFPGNKLEYMGYISYSGKTYYNPSLKSRISITRDTSKNHYYLQLISVTAEDTATYYCARSKYDYAMDYWGQGTSVTVSS
VL: B1 VL
notes: Chimeric 29B06 Heavy IgG1 + Sh29B06 Kv2-28 Kappa

Residue numbers refer to the chain shown, from its start. Numbers in names are those of the source.

The target in one assay is T1, human wild-type RON (cell surface) (human, UniProt Q04912 25-1400).
T1 construct: whole, on cells; also called Human RON; wt RON
Nature of the assay: FACS titration on PC3 cells, 4 C. The procedure: (§1) Binding to cell surface human wild-type RON and the delta 160 RON variant by antibodies 07F01, Sh07F01-62, 29B06, and Sh29B06-78 was measured at 4° C., using Fluorescence Activated Cell Sorting (FACS). PC3 cells expressing the human wild-type RON, and HT29 cells expressing the delta 160 variant, were harvested using cell dissociation buffer (Invitrogen), washed twice with FACS buffer (PBS with 0.5% BSA), and treated 10 minutes with Cyto Q Antibody diluent and FC receptor block (Innovex Biosciences, Richmond, Calif.). Purified antibodies were diluted in FACS buffer over a concentration range from 0.01 nM to 25 nM. Cells were incubated with 100 μl of antibody for one hour, washed with FACS buffer three times, and incubated for 45 minutes with goat anti-mouse PE-conjugated antibody (Jackson ImmunoResearch Laboratories, West Grove, Pa.) or donkey anti-human PE-conjugated antibody (Jackson ImmunoResearch Laboratories, West Grove, Pa.). Cells were washed three times with FACS buffer, resuspended in 300 μl of FACS buffer, and analyzed using a Beckman Coulter Cytomics FC 500 FACS instrument. All four antibodies were compared in the same experiment.
As usually defined, the Kd is the concentration at which binding is half-saturated. The molecule B1 came in with a Kd of 0.09 nM.
Turning to B2, the Kd stood at 0.043 nM.

The next assay deals with T2, delta 160 RON variant (cell surface) (human, UniProt Q04912 25-1400).
T2 construct: whole, on cells; Splice variant; also called delta 160 variant
The experiment in a line: FACS titration on HT29 cells, 4 C. Here is the method:
as §1
Consider B1, for which the Kd is 0.239 nM.
Molecule B2 showed a Kd of 0.118 nM.

The target in another assay is T3, recombinant human RON SEMA and PSI domains (human, UniProt Q04912 25-571).
T3 construct: domain: SEMA+PSI; Commercial protein (R&D Systems); also called rhRON SEMA+PSI; hRON SEMA+PSI
The experiment in a line: SPR, Ab captured on anti-human IgG Fc, 25 C.
As usually defined, the koff is the first-order rate constant of dissociation. By kon is commonly meant a measure of how fast the partners come together. B1: the Kd amounted to 0.048 nM, the koff was found to be 3.1e-05 s⁻¹ and the kon amounted to 680000 M⁻¹ s⁻¹.
Taken in the same sequence, the figures for B3 were 0.67 nM, 0.00068 s⁻¹ and 1.2e+06 M⁻¹ s⁻¹.
Taken in the same sequence, the figures for B2 were 0.085 nM, 0.00016 s⁻¹ and 1.8e+06 M⁻¹ s⁻¹.

For the next assay, the target named is T3, recombinant human RON SEMA and PSI …. Nature of the assay: SPR, Ab captured on anti-human IgG Fc, 37 C. In general terms: In SPR one partner is held on a chip, and binding of the other changes the refractive index at the surface.
On to B1, for which the Kd came to 0.11 nM, the koff turned out to be 0.0001 s⁻¹ and the kon turned out to be 960000 M⁻¹ s⁻¹.
For the molecule B3, the Kd is 0.92 nM, the koff was determined as 0.0025 s⁻¹ and the on-rate (kon) stood at 7e+06 M⁻¹ s⁻¹.
Taken in the same sequence, the figures for B2 were 0.25 nM, 0.00069 s⁻¹ and 2.8e+06 M⁻¹ s⁻¹.

The next assay has the same target. The experiment in a line: SPR, purified Ab captured on anti-human IgG Fc, 25 C.
As for B4, the Kd turned out to be 0.082 nM, the koff turned out to be 9.8e-05 s⁻¹ and the kon was found to be 1.2e+06 M⁻¹ s⁻¹.
Regarding B1, the Kd is 0.052 nM, the koff is 3.9e-05 s⁻¹ and the association rate constant (kon) is 750000 M⁻¹ s⁻¹.
With B5, the Kd turned out to be 0.14 nM, the koff amounted to 9.5e-05 s⁻¹ and the kon worked out at 670000 M⁻¹ s⁻¹.
For the molecule B2, the Kd came out at 0.085 nM, the koff worked out at 0.00016 s⁻¹ and the kon amounted to 1.8e+06 M⁻¹ s⁻¹.
For B6, the Kd stood at 0.11 nM, the koff worked out at 0.00018 s⁻¹ and the kon stood at 1.6e+06 M⁻¹ s⁻¹.
For B7 the same measures were 0.12 nM, 0.00014 s⁻¹ and 1.1e+06 M⁻¹ s⁻¹.
Taken in the same sequence, the figures for B8 were 0.09 nM, 0.00011 s⁻¹ and 1.2e+06 M⁻¹ s⁻¹.

A further assay shares this target. Nature of the assay: SPR, purified Ab captured on anti-human IgG Fc, 37 C. Here is the method: (§2) Goat anti-human IgG Fc (Jackson ImmunoResearch, Catalog No. 109-005-098) was immobilized on carboxymethylated dextran CM4 sensor chips (Biacore) by amine coupling (Biacore) using a standard coupling protocol according to the vendor's instructions. The analyses were performed at 37° C. using PBS (Invitrogen) containing 0.05% surfactant P20 (Biacore) as running buffer.
(§3) The antibodies were captured in individual flow cells at a flow rate of 60 μl/minute. Injection time was varied for each antibody to yield an Rₘₐₓ between 30 and 60 RU. Buffer or rhRON SEMA+PSI diluted in running buffer was injected sequentially over a reference surface (no antibody captured) and the active surface (antibody to be tested) for 300 seconds at 60 μl/minute. The dissociation phase was monitored for up to 1200 seconds. The surface was then regenerated with two 60 second injections of Glycine pH 2.25 (made from Glycine pH 2.0 (Biacore) and pH 2.5 (Biacore)) at 60 μl/minute. For the initial screening, only one or two concentrations of rhRON SEMA+PSI were tested, typically 10.0 and 2.5 nM (results are summarized in Table 20).
The binding affinities and kinetics of certain purified monoclonal antibodies were also determined. To further characterize certain antibodies, the surface plasmon resonance experiments described above were conducted using concentrations of rhRON SEMA+PSI between 0.3125 nM and 10.0 nM (a 2-fold serial dilution).
With B4, the Kd was found to be 0.31 nM, the off-rate constant (koff) is 0.00053 s⁻¹ and the kon was 1.7e+06 M⁻¹ s⁻¹.
As for B1, the Kd was 0.11 nM, the koff was determined as 0.00011 s⁻¹ and the on-rate constant (kon) was 1e+06 M⁻¹ s⁻¹.
As to B5, the Kd is 0.46 nM, the koff came out at 0.00033 s⁻¹ and the kon amounted to 730000 M⁻¹ s⁻¹.
For B2 the same measures were 0.25 nM, 0.00069 s⁻¹ and 2.8e+06 M⁻¹ s⁻¹.
As for B6, the Kd was found to be 0.24 nM, the koff is 0.00079 s⁻¹ and the kon was determined as 3.2e+06 M⁻¹ s⁻¹.
As to B7, the Kd stood at 0.3 nM, the koff amounted to 0.00078 s⁻¹ and the kon was found to be 2.5e+06 M⁻¹ s⁻¹.
For B8 the same measures were 0.3 nM, 0.00056 s⁻¹ and 1.8e+06 M⁻¹ s⁻¹.

The next assay shares this target. Nature of the assay: SPR, Ab captured on anti-human IgG Fc, 37 C, screening. Here is the method:
as §2, §3
Kinetic parameters were determined using the kinetic function of the BIAevaluation software (Biacore) with double reference subtraction. Kinetic parameters for each antibody, kₐ (association rate constant), kd (dissociation rate constant) and KD (equilibrium dissociation constant) were determined. Certain monoclonal antibodies were screened using cell culture media supernatant containing secreted antibody, and kinetic values of the monoclonal antibodies on rhRON SEMA+PSI at 37° C. are summarized in Table 20.
Consider B4, for which the Kd stood at 0.38 nM, the koff was 0.00073 s⁻¹ and the kon was 2e+06 M⁻¹ s⁻¹.
Taken in the same sequence, the figures for B9 were 0.26 nM, 0.00022 s⁻¹ and 870000 M⁻¹ s⁻¹.
Regarding B5, the Kd is 0.64 nM, the off-rate constant (koff) amounted to 0.00048 s⁻¹ and the kon was found to be 780000 M⁻¹ s⁻¹.
Taken in the same sequence, the figures for B2 were 0.36 nM, 0.0014 s⁻¹ and 3.9e+06 M⁻¹ s⁻¹.
For B6 the same measures were 0.54 nM, 0.0014 s⁻¹ and 2.6e+06 M⁻¹ s⁻¹.
Turning to B7, the Kd is 0.56 nM, the koff was found to be 0.0012 s⁻¹ and the on-rate (kon) stood at 2.3e+06 M⁻¹ s⁻¹.
